Measured values from US20260193333A1, “METHODS OF INHIBITING FIBRIL GROWTH” (University of Tennessee Research Foundation, priority 2023, published 2026).

Key:
rVλ6WIL fibrils = experiment: rVλ6WIL (WIL) fibril extension assay with biotinylated rVλ6WIL monomer; type: biochemical; details: for % Change (at 2 μM) in rVλ6WIL fibril extension: at 2 μM sample, 20 nM Biotin-WIL, blocking agent BSA, compared to control sample
Method: A WIL fibril extension assay was developed for analyzing in vitro amyloid fibril formation using biotinylated WIL monomers.
First, a high binding 96-well ELISA plate was coated with 0.83 μM sonicated rVλ6WIL synthetic fibrils ([…]). The fibrils were then dried in a 37° C. oven. Subsequently, the plate was washed twice with wash buffer (PBS+0.05% tween 20). The plate was then blocked with […] of 1% BSA in PBS for 1 hour at 37° C. The blocking buffer was then removed and the plate was washed twice with wash buffer. For positive control wells, 100 mL of 20 nM biotinylated rVλ6WIL monomer (biotinylated with EZ-link Sulfo-NHS-biotin (ThermoFisher Scientific) following their protocol) in 1% BSA+0.05% tween 20 in PBS (BSAT) was added per well. For test wells, 100 mL of a mix of 20 nM biotinylated rVλ6WIL monomer plus an amyloid-reactive peptide, an amyloid-reactive antibody, or an amyloid-reactive antibody-peptide fusion protein (2, 0.5, 0.05, 0.01, 0.005 and 0.001 […]) in BSAT was added per well. Background control wells (containing no fibrils) contained […] of 20 nM biotinylated rVλ6WIL monomer in BSAT added to them. The microplate was then incubated for 1 hour at 37° C. The plate was then washed twice with wash buffer. 100 mL of a 1:1000 dilution of europium-labeled streptavidin (Perkin Elmer) in BSAT was then added into each well and incubated for 1 hour at 37° C. Next, the plate was washed 3× with wash buffer. To quantify amyloid fibril formation, […] of enhancement solution (Perkin Elmer) was added to each well and time-resolved fluorescence emission was measured in each well.
The methods of Example 1 were carried out in the presence of the amyloid reactive peptide p5R, an amyloid-reactive antibody-peptide fusion protein, an amyloid-reactive humanized antibody, or a control.
Assay conditions included the following: 20 nM biotinylated WIL monomer, 1 hour incubation using BSA as a blocking agent, and 50 μL/well of 10 μg/mL fibrils (0.83 μg).

[1] = target: rVλ6WIL synthetic fibrils; experiment: fibril extension assay: 20 nM biotin-WIL monomer binding to plate-coated rVλ6WIL fibrils in the presence of 2 µM sample, BSA block, europium-streptavidin

Molecule | % Change (at 2 μM) in rVλ6WIL fibril extension (rVλ6WIL fibrils) | rVλ6WIL fibril extension in the presence of the peptide (rVλ6WIL fibrils; concentrations between 0.001 μM to 2.0 μM, FIGS. 2A, 2B) | % Change (at 2 µM) of rVλ6WIL fibril extension against control [1] | extension of rVλ6WIL fibrils in the presence of the antibody (rVλ6WIL fibrils; beginning at a concentration of 0.01 μM, FIGS. 4A, 4B) | concentration at which significant attenuation of rVλ6WIL fibril extension begins (rVλ6WIL fibrils; tested 0.001 to 2 μM) | concentration of maximum level of rVλ6WIL fibril extension inhibition (rVλ6WIL fibrils; tested 0.001 to 2 μM)
Amyloid reactive peptide p5R: amyloid-reactive peptide p5R, SEQ ID NO: 2, RAQRAQARQARQAQRAQRAQARQARQ (RAQRAQARQARQAQRAQRAQARQARQ) | +12% | insufficient to inhibit rVλ6WIL fibril extension | – | – | – | –
RAQRAQARQARQAQRAQRAQARQARQ [amyloid-reactive peptide p5R] | – | – | 12% | – | – | –
amyloid-reactive humanized antibody (VH SEQ ID NO:55 / VL SEQ ID NO:36) (antibody, V domains shown) VH: QVQLQESGPGLVKPSETLSLTCTVSGFSLSSYGVSWIRQPPGKGLEWLGVIWGEGSTNYHPNLMSRVTISVDTSKSQVLFKLSSVTAADTAVYYCATLDYWGQGTSVTVSS VL: DVVMTQSPLSLPVTLGQPASISCRSSQSLVHRSGNTYLHWFQQRPGQSPRLLIYKVSNRFSGVPDRFSGSGSGTDFTLKISRVEAEDVGVYFCFQTTYVPNTFGGGTKLEIK | −89% | – | -89% | significantly attenuated | 10 nM | 2000 nM
